According to paper PMC12072466, “Mechanisms of Viral DNA Replication of Human Papillomavirus: E2 Protein-Dependent Recruitment of E1 DNA Helicase to the Origin of DNA Replication” (International Journal of Molecular Sciences, 2025):

Assays:
E1 helicase;E2 [1] = molecular target: T1, E1 helicase;E2 (Human papillomavirus 16 (Methods 4.2; …, UniProt P03114;P03120 1-649;1-365, |); test: EMSA; 4 mM Mg2+, 1.4 mM ATP; E2 2.8 nM, E1 43-347 nM; C3* complex even at low E1; settings: protein: recombinant;recombinant; tags: C-terminal 10xHis;C-terminal 10xHis; chain copies: 6;2; label: 5' 32P; blunt
T1 sequence (P03120 whole entry, one chain of several): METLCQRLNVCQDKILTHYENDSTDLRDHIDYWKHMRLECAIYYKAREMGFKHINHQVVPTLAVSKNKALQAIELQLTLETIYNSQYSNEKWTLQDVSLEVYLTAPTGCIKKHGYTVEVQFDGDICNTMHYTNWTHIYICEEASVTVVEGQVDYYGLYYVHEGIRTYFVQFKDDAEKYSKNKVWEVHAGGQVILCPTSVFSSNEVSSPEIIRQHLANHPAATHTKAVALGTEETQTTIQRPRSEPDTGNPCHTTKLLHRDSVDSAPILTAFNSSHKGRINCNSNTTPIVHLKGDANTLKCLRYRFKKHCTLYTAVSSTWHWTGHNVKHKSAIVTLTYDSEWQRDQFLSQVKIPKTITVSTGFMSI

E2 [2] = molecular target: T2, E2 (Human papillomavirus 16 (Methods 4.2; …, UniProt P03120 1-365); test: EMSA; 4 mM Mg2+, 1.4 mM ATP; E2 2.8 nM; C1* complex, two E2 dimers; settings: protein: recombinant; tags: C-terminal 10xHis; chain copies: 2; label: 5' 32P; blunt
T2 sequence (P03120 whole entry): as the sequence (P03120 whole entry, one chain of several) above

E1 helicase;E2 [3] = molecular target: T1, E1 helicase;E2; test: EMSA; 4 mM Mg2+, 1.4 mM ATP; E2 2.8 nM, E1 43-347 nM; C2* and C3* complexes; settings: protein: recombinant;recombinant; tags: C-terminal 10xHis;C-terminal 10xHis; chain copies: 6;2; label: 5' 32P; blunt
[4] = molecular target: the molecule itself; test: dynamic light scattering; purified E1 in solution; oligomeric state; conditions not shown (Figure S3)
E2 [5] = molecular target: T2, E2; test: EMSA; 4 mM Mg2+, 1.4 mM ATP; E2 2.8 nM; C1* complex, E2 dimer; settings: protein: recombinant; tags: C-terminal 10xHis; chain copies: 2; label: 5' 32P; blunt

B1: Oligo II, E2 BS1+2 (50 bp) (dsDNA)
DNA 1: GGCGGGACCGAAAACGGTTCAACCGAAAACGGTTATATATAAACCAGCCC
DNA 2: GGGCTGGTTTATATATAACCGTTTTCGGTTGAACCGTTTTCGGTCCCGCC
binding result (E1 helicase;E2 [1]): binds

B2: Oligo I, E2 BS1+2+E1BS (124 bp) (dsDNA)
DNA 1: GTAACCCACACCCTACATATTTCCTTCTTATACTTAATAACAATCTTAGTTTAAAAAAGAGGAGGGACCGAAAACGGTTCAACCGAAAACGGTTATATATAAACCAGCCCAAAAAATTAGCAGA
DNA 2: TCTGCTAATTTTTTGGGCTGGTTTATATATAACCGTTTTCGGTTGAACCGTTTTCGGTCCCTCCTCTTTTTTAAACTAAGATTGTTATTAAGTATAAGAAGGAAATATGTAGGGTGTGGGTTAC
binding result (E2 [2]): binds | binding result (E1 helicase;E2 [3]): binds

B3: full-length HPV16 E1 helicase (enzyme)
chain: MADPAGTNGEEGTGCNGWFYVEAVVEKKTGDAISDDENENDSDTGEDLVDFIVNDNDYLTQAETETAHALFTAQEAKQHRDAVQVLKRKYLVSPLSDISGCVDNNISPRLKAICIEKQSRAAKRRLFESEDSGYGNTEVETQQMLQVEGRHETETPCSQYSGGSGGGCSQYSSGSGGEGVSERHTICQTPLTNILNVLKTSNAKAAMLAKFKELYGVSFSELVRPFKSNKSTCCDWCIAAFGLTPSIADSIKTLLQQYCLYLHIQSLACSWGMVVLLLVRYKCGKNRETIEKLLSKLLCVSPMCMMIEPPKLRSTAAALYWYKTGISNISEVYGDTPEWIQRQTVLQHSFNDCTFELSQMVQWAYDNDIVDDSEIAYKYAQLADTNSNASAFLKSNSQAKIVKDCATMCRHYKRAEKKQMSMSQWIKYRCDRVDDGGDWKQIVMFLRYQGVEFMSFLTALKRFLQGIPKKNCILLYGAANTGKSLFGMSLMKFLQGSVICFVNSKSHFWLQPLADAKIGMLDDATVPCWNYIDDNLRNALDGNLVSMDVKHRPLVQLKCPPLLITSNINAGTDSRWPYLHNRLVVFTFPNEFPFDENGNPVYELNDKNWKSFFSRTWSRLSLHEDEDKENDGDSLPTFKCVSGQNTNTL
notes: Replication protein E1 (DNA helicase) of human papillomavirus type 16, full-length, codon-optimized synthetic gene in pET28a; about 75 kDa on SDS-PAGE; Hexamer in solution by dynamic light scattering; also called HPV E1; E1 DNA helicase
stoichiometry N [4]: 6

B4: Oligo III, E2 BS (24 bp) (dsDNA)
DNA 1: CTTGCAACCGTTTTCGGTTGCCCT
DNA 2: AGGGCAACCGAAAACGGTTGCAAG
binding result (E2 [5]): binds
